# Where a chain is given by its changes, count along the chain named. Numbers in names are those of the source.
# T1: factor XIIIa (Homo sapiens, UniProt P00488)
# T1 sequence (P00488 39-732 limits assumed): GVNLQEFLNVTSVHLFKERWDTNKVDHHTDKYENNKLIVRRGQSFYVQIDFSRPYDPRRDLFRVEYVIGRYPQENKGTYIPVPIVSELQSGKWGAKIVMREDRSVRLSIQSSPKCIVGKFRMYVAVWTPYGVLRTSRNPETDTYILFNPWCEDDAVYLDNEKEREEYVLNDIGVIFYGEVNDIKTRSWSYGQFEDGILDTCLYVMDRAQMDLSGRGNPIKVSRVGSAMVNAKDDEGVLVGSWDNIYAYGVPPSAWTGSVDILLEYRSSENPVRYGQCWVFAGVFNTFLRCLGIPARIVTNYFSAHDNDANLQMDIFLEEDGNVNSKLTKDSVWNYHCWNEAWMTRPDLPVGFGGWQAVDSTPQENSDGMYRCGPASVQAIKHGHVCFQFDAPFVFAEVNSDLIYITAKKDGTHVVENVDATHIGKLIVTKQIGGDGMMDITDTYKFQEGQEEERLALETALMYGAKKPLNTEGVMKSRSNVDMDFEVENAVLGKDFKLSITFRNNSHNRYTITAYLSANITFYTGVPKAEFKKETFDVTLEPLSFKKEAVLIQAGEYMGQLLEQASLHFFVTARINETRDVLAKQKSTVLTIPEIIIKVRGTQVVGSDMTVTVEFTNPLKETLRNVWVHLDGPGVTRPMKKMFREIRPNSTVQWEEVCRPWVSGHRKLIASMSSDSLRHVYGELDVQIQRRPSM
# B1: recombinant tridegin polypeptide expressed in the yeast Pichia pastoris: tridegin polypeptide encoded by SEQ ID No. 90, secreted from Pichia pastoris; main product lacks the 11 C-terminal residues (protein)
# chain: MRFPSIFTAVLFAASSALAAPVNTTTEDETAQIPAEAVIGYSDLEGDFDVAVLPFSNSTNNGLLFINTTIASIAAKEEGVSLEKRKLLPCKEWHQGIPNPRCWCGADLECAQDQYCAFIPQCRPRSELIKPMDDIYQRPVEFPNLPLKPREESLEHHHHHH
# modifications: main product lacks 11 C-terminal residues
# notes: main product lacks the 11 C-terminal residues
# B2: H10A: modified tridegin, XnY mutation of SEQ ID No. 1, expressed in Escherichia coli (protein)
# chain: MKLLPCKEWAQGIPNPRCWCGADLECAQDQYCAFIPQCRPRSELIKPMDDIYQRPVEFPNLPLKPREE
# B3: D50A: modified tridegin, XnY mutation of SEQ ID No. 1, expressed in Escherichia coli (protein)
# chain: B2 chain with A10H, D50A
# B4: K07A: modified tridegin, XnY mutation of SEQ ID No. 1, expressed in Escherichia coli (protein)
# chain: B2 chain with K7A, A10H
# B5: M48A: modified tridegin, XnY mutation of SEQ ID No. 1, expressed in Escherichia coli (protein)
# chain: B2 chain with A10H, M48A
# B6: Y31A: modified tridegin, XnY mutation of SEQ ID No. 1, expressed in Escherichia coli (protein)
# chain: B2 chain with A10H, Y31A
# B7: F34A: modified tridegin, XnY mutation of SEQ ID No. 1, expressed in Escherichia coli (protein)
# chain: B2 chain with A10H, F34A
# B8: P65A: modified tridegin, XnY mutation of SEQ ID No. 1, expressed in Escherichia coli (protein)
# chain: B2 chain with A10H, P65A
# B9: F58A: modified tridegin, XnY mutation of SEQ ID No. 1, expressed in Escherichia coli (protein)
# chain: B2 chain with A10H, F58A
# B10: D50A, P55L: spontaneously arising double mutant of tridegin SEQ ID No. 1, expressed in Escherichia coli (protein)
# chain: B2 chain with A10H, D50A, P55L
# B11: G12A: modified tridegin, XnY mutation of SEQ ID No. 1, expressed in Escherichia coli (protein)
# chain: B2 chain with A10H, G12A
# B12: I45A: modified tridegin, XnY mutation of SEQ ID No. 1, expressed in Escherichia coli (protein)
# chain: B2 chain with A10H, I45A
# B13: R39A: modified tridegin, XnY mutation of SEQ ID No. 1, expressed in Escherichia coli (protein)
# chain: B2 chain with A10H, R39A
# B14: N60A: modified tridegin, XnY mutation of SEQ ID No. 1, expressed in Escherichia coli (protein)
# chain: B2 chain with A10H, N60A
# B15: L24A: modified tridegin, XnY mutation of SEQ ID No. 1, expressed in Escherichia coli (protein)
# chain: B2 chain with A10H, L24A
# B16: K02A: modified tridegin, XnY mutation of SEQ ID No. 1, expressed in Escherichia coli (protein)
# chain: B2 chain with K2A, A10H
# B17: C18A: tridegin modified by replacement of a cysteine residue, expressed in Escherichia coli (protein)
# chain: B2 chain with A10H, C18A
# B18: C26A; +C38A: tridegin modified by replacement of two cysteine residues, expressed in Escherichia coli (protein)
# chain: B2 chain with A10H, C26A, C38A
# B19: C20A: tridegin modified by replacement of a cysteine residue, expressed in Escherichia coli (protein)
# chain: B2 chain with A10H, C20A
# B20: C06A: tridegin modified by replacement of a cysteine residue, expressed in Escherichia coli (protein)
# chain: B2 chain with C6A, A10H
# B21: C32A: tridegin modified by replacement of a cysteine residue, expressed in Escherichia coli (protein)
# chain: B2 chain with A10H, C32A
# B22: C26A: tridegin modified by replacement of a cysteine residue, expressed in Escherichia coli (protein)
# chain: B2 chain with A10H, C26A
# Biological target: T1, factor XIIIa
# Assay: biochemical
# Type: biochemical
# Details: not given
# Protocol: The assay is based on factor XIII being activated to form factor XIIIa by thrombin which is present in the reagents. Factor XIIIa links a specific peptide substrate to glycine ethyl ester with ammonium ions being released. The latter are determined in an enzyme reaction which proceeds in parallel. The extinction at 340 nm was used to measure the decrease in NADH. For the measurement, peptides were present in 50% acetonitrile in a stock concentration of 5 mM. The NADH and detection reagents which were supplied by the manufacturer were dissolved in 3 ml of water, with the activator reagent subsequently being dissolved in 3 ml of NADH reagent. For use, the activator and detection reagents were mixed in a ratio of 1:1. In order to carry out the measurement in microtiter plate format, 100 μl of sample (inhibitor or control buffer), 25 μl of factor XIII (10 U/ml) and 150 μl of working reagent were mixed. The measurement was carried out continuously for 20 min at 340 nm, and at 37° C., in a microtiter plate photometer. For the evaluation, the differences in the values measured after 16 and 20 min were compared.
# The relative inhibitory effect (%) was determined at a final variant concentration of 5.45 μM. The inhibitory effect of the recombinant tridegin polypeptide was normalized to 100% (at 5.45 μM).
# The above-described Berichrom® assay was used to determine the relative inhibitory effect (%) at a final concentration of the peptides of 7.27 μM. The inhibitory effect of the recombinant tridegin polypeptide, at a final concentration of 7.27 μM, was normalized to 100%.
# The relative inhibitory effect (%) was determined at a final variant concentration of 5.45 μM. The inhibitory effect of the recombinant wild-type tridegin poly-peptide (at 5.45 μM) was normalized to 100%. The oligonucleotides which were used to produce the abovementioned variants are also specified in the table.
row,Molecule,inhibitory activity compared with wild-type tridegin polypeptide expressed in Escherichia coli
1,B1,even more effective

# Same assay, conditions: Table 2; final variant concentration 5.45 μM; recombinant tridegin polypeptide normalized to 100%
row,Molecule,Relative inhibitory effect (%)
1,B2,87
2,B3,53
3,B4,90
4,B5,91
5,B6,69
6,B7,96
7,B8,51
8,B9,60
9,B10,84
10,B11,97
11,B12,115
12,B13,49
13,B14,68
14,B15,92
15,B16,113

# Same assay, conditions: Table 3; final peptide concentration 7.27 μM; recombinant tridegin polypeptide at 7.27 μM normalized to 100%
row,Molecule,relative inhibitory effect (% of recombinant tridegin) at 7.27 µM [%]
1,Ac-DDIYQRPVEFPNLPLKPREE-NH2 [SEQ ID No. 26],35.6
2,Ac-IKPMDDIYQRPVEFPNLPLK-NH2 [SEQ ID No. 24],43.5
3,Ac-PMDDIYQRPVEFPNLPLKPR-NH2 [SEQ ID No. 25],42.1

# Same assay, conditions: Table 4, Cys variants; final variant concentration 5.45 μM; wild-type tridegin polypeptide normalized to 100%
row,Molecule,Relative inhibitory effect (%)
1,B17,93
2,B18,80
3,B19,63
4,B20,72
5,B21,86
6,B22,82
